# Source: the nanobody polyreactivity screen of Harvey et al. (2022)
# Assay: yeast display, Sf9 membrane polyspecificity reagent, FACS + sequencing; frameworks hold sequencing errors
# In short: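 Sorting gates, low and high (top ~1%), were placed on anti-HA fluorescence to track expression and on streptavidin fluorescence to track reagent binding. A clone's polyreactivity label is taken from the gate it came out of. The reagent was 10% biotinylated, detergent-solubilized Sf9 membrane, applied for 1 hour at 4 °C to galactose-induced yeast display cells.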
row,Sequence,polyreactivity (PSR sort gate)
1,QVQLVESGGGLVQAGGSLRLSCAASGITFYGYAMGWYRQAPGKERELVAAITSGGSTNYADSVKGRFTISRDNAKNTVYLQMNSLKPEDTAVYYCAADLWAYGYYYVGYDYWGQGTQVTVSS,low polyreactivity
2,QVQLVESGGGLDQAGGSLRLICASSGRTFYPNAMGWYRQAPGKEREFVAAITWSGGGTFYADSVKGRFTISRDHAKNTVYLQMLSLNPEDTAVYYCAARLDTYQTQSVITPAALYYWGQGTQETVSS,low polyreactivity
3,QVQLVESGGGLVQAVGSLRLSSAASRSTFGLNAMGWYRQAPGKESELVAAITFSGGSTYYADSVKGRFTISRDNANNTVYLQKNSLKPEDTAVYYCAARFSLEGGYYWGQGTQVTVSS,low polyreactivity
4,QVQLVESGGGLFHAGGSLRLSCAAYGSTFPYYTMGWYRQAPGKERELVAAITTRGGGTYYADSVKGRFTISRDNAKNTVYIQMKSLKPEDTAVYYCAAKTIYYTRGIRHYYWGQVTQVTVSS,high polyreactivity
5,QVQLVESGGGLVQAGGSLRLSCAASGFTFSYNAMGWYRQAPGKERELVAAIDWGGGSTYSYSVKGRFTISRDNAKNTVYLQMNSLKPEDTAVYYCAAYIPSSGRNPEIGVEYDYWGQGTQVTVSS,low polyreactivity
6,QVQLVESGGGLVQAGGSLRLSCAASGSTFWSNVMGWYRQAPGKERELVSAISYGGVTTSYADSVKGRFTISRDNAKNTVYLQMNSLKPEDTAVYYCAAYNGAHSHFGYWGQGTQVTVSS,low polyreactivity
7,QVQLVESGGGLVQAGGSLRLSCAASGSTFYKYAMGWYRQAPGKERELVASISRSGGSTSYADSVKGRFTISRDNAKNTVYLQMNSLKPEDTAVYYCAADRYSSPYYSSPNEYDYWGQGTQVTVSS,high polyreactivity
8,QVQLVESGGGLVQAGGSLRLSCAASGRTFVYNAMGWYRQAPGKERELVAGITGSGDSTYYADSVKGRFTISRDNAKNTVYLQMNSLKPEDTAVYYCNQLVEEDYWGQGTQVTVSS,low polyreactivity
9,QVQLVESGGGLVQAGGSHRLSSAASGNTFGINAMGWYRQAPGKERELVASISFTGSSTYYADSVKGRFTISRDNAKNTVYLQMNSLKPEDTAVYYCNRDRITLYEYDYWGQGTQVTVSS,low polyreactivity
10,QVQLVESGGGLVQAGGSLRLSCAASGSNFRVYAMGWYRQAPGKERELVAAISSSGVRTSYADSVKGRFTISRDIAKNTVYLQMNSLKPEDTSVYYCADRYPYGYYHWGQGTQVTVSS,high polyreactivity
11,QVQRVESAGRLVQAGGSLRLSCAPSGYTFYGYAMGWYRQAPGKESELVAAISGSGGSTYYADSVKGRFTMSRDNAKNTVYLQMNSLIPEDTAVYYCNKARYAIYRGDGYDYWGQGTEVTVSS,high polyreactivity
12,QVQLVESGGGLVQAGGSLRLSCAASGSIFYYYAMGWDRQENGKESELVAAIDWDGGTTYYADSVMGLFTISRDNAKNTVYLQMNSLKPEDTAVFYCAGEVLYGPGGGYEYWGQGTQVTVSS,high polyreactivity
13,QVQLVESGGGLVQAGGSLRLSCAASGSTFRLYAMGWYRQAPGKERELVAVISRSGGRTYADSVKGRFTISRDNAKNSVYFQMNSLKPEDTAVYYCAKARHKSATYTHDSWGQGTQVTVSS,high polyreactivity
14,QVQLVESGGGLVQAGGSLRLSCAASGRIFGYNPMGWYRQAPGKERELVAAITTSGGSTYYADSVKGRFTISRDNAKNTVYLQMNSQKPEDTAVYYCARDSLQVFYPYASDDYWGQGTQVTVSS,low polyreactivity
15,QDQLVESGGGLVQAGGSLRLSCAASGRIISANAMGWYRQAPGKERELVATISTGGGRTYYADSVKGRFTISRDNAKNTVYLQMNSLKPEDTAVYYCNATRNYARVRYYYWGQGTQVTVSS,high polyreactivity
16,QVQLVESGGGVVQAGGSLRLSCAASGRIFYGNAMGWYRQAPGKERELVAAISSGTSTNYADSVKGRFTISRDNAKNTVYLQMTSLKPEDTAVYYCAAGSYSRYLYSLYFDFDYWGQGTQVTVSS,low polyreactivity
17,QVQLVESGGGLVQAGGSLRLSCAASGTTFKTYCMGRYRQAPGKERELVAAISRRGGSTSYADSVKGRFTISRDNAKNTVYLQMNSLKPEDTAVYYCNVLGWWHVWGYDYWGQGTQVTVSS,high polyreactivity
18,QVQLEESGGGLVQAGGSLRLSCAASGSIFAVYAMGWYRHAPGKERELVAAIRSGSRTYYADSVKGRFTISRDNAKNTVYLQMNSLKPEDTAVYYCATTYGTPRYDYWGQGTQVTVSS,high polyreactivity
19,QVQLVESGGGLVQAGGSLRLSCAASGRICINDMGWYRQAPGKERELVAAIRSDGSTNYADSVKGRFTISRDNAKNTVYLQMNSLKPEDTAVYYCNVDGYYLFVRGYEYWGQGTQVTVSS,low polyreactivity
20,QVQLVESGGGLVQAGGSLRLSCAASGLTFIFNAMGWYRQAPGKERELVADISSGVNTNYADSVKGRFTISRDNAKNTVYLQMNSLKPEDTAVYYCNARRYWLRYDYWGQGTQVTVSS,low polyreactivity
21,QVQLVESGGGLVQAGGSLRLSCPASGFILYPYAMGWYRQAPGKERELVAAITSRGGRTYYADSVKGRFTISRDNAKNTVYLQMNSLKPEDTAVYYCAAKRTSYYAPLKYYSWGQGTQVTVSS,high polyreactivity
22,QVQLVESGGGLVQAGGSLRLSCAASGFIFVSYAMGWYRPAPGKERELVAAIDRIGGITYYADSVKGRFTISRDNAKNTVYLQMNSLKPEDTAVYYCAAAARYATVRVGREYYWGQGTQVTVSS,low polyreactivity

row,Sequence,polyreactivity (PSR sort gate)
1,QVQLVESGGGLVQAGGSLRLSCASSGFTLYGYTKGWYRQAPGKERELVAAISGSGGRTYYADSVKGRFTISRDNAKNTVYLHMNTLKPEDNAVYYCAADSRGTCDGYDYWGQGTQVTVSS,high polyreactivity
2,QVQLVESGGGLVQAGGSLRLSCAASGSTFYTYAMGWYRQAPGKERELVAAISYRGGSTYYADSVKGRFTISRDNAKNTVYLQMNSLKPEDTSVYYCKVDGVVVGTKRGGYDYWGQGTQVTVSS,low polyreactivity
3,QVQLVESGGGLVQAGGSLRLSCAASGSIFTRYAMGWYRQAPGKEREFVAAISRRGGRTYYADSVKGRFTISRDNAKNTVYLQMNSLKPEDTAVYYCAASEPPGYYIALFDYWGQGTQVTVSS,high polyreactivity
4,QVQLVESGGGLVQAGGSLRISCAASGFTFSYNTMGWYRQAPGKERELVAAITGDVSTNYADSVKGRFTISRDNAKNTVYLQMNSLKPEDTAVYYCAARPNFPGYEDLSVDFEYWGQGTQGTVSS,low polyreactivity
5,QVQLVESGGGLVQAGGSLRLSCAASGSTFYPNAMGWYRQAPGKERELVAAIRTRGGSTYYADSVKGRFTISRDNAKNTVYLQMNSLKPEDTAVYYCAAEKRYRKAFDYWGQGTQVTVSS,low polyreactivity
6,QVQLVESGGGLVQAVGSLRLSCAASGITFKWYAMGSYRHAPGKERELVAAISWSTGSTYYADSVKGRFTISRDNAKNTVYLQMNSLKPEDTAVYYCAARVKRPQTGYDRRYGYWGQGTQVTVSS,high polyreactivity
7,QVQLVESGGGLVQAGGSLRLSCAASGITFGAYAMGWYRQAPGKERELVASISSSGSTYADSVKGRFTISRDNAKNTVYLQMNSLKPEDTGVYYCNAVGFQANDYNYWGQGTQVTVSS,low polyreactivity
8,QVQLVESGGGLVQAGGRLRLSCAASGTIFYWNAMVWYRQATGKERELVAAINSGDSTNYADSVKGRFTISRDNAKNTVYFQMYSLKPEDTAVYYCAASIYAALNGGPGYDYWGQGTQVTVSS,low polyreactivity
9,QVQLVESGGGLVQAGGSLRLSCAASGRIFIRYAMGSYRQAPGKERELVAAITYSGGRTYYADSVKGRFTISRDNAKNTVYLQMNSLKPEDTAVYYCAADAPYGEDYWGQGTQVTVSS,high polyreactivity
10,QLQLVESGGGLVKAGGSLRLSCAASGRTLPVYAMGWYRQAPGKERELVAAIRWRGGRTYYADSVKGRFTISRDNAKNTVYLQMNSLKPEDTAVYYCAATTNTDRDYWGQGTQVTVSS,high polyreactivity
11,QFQLVESGGGLVQAGGSLRLSCAASGSTFRGYTMGWYRQAPGKERELVAAIRSTTGRTYYADSVKGRFTISRENAKNTVYLQMNSLKPEDTAVYYCNKAYPREYYYWGQGTQVTVSS,high polyreactivity
12,QVQLVESGGGLVQAGGSLRLSCAASGNTFHSNAMGWYRQAPGKERELVAAITPSDGDTYYADSVKGRFTISRDIAKNTVYLQMNSLKPEDTAVYYCAADPEPSYRFDYWGQGTQVTVSS,low polyreactivity
13,QVHLVESGGGLVQAGGSLRLSCAASASTLGSNTMGWYRQAPGKERELVATISRRGGSTYYADSVKGRFTISRDNAKYTVYLQMNSLKPADTAVYYCAARPVYKFGSWGQGTQVTVSS,high polyreactivity
14,QVQLVESGGGFVQAGGSLRLSCAASGRIIGYNAMAWYRQAPGKDRELVAAITTSGGSTYYADSVKGRFTISRDNAKNTVYLQMNSLKPEDTAFYYCARDSLQVFYAYASDDFWGQGTQVTVSS,low polyreactivity
15,QVQLGESGGGLVQAGGSLRLSCAASGSTFNRYAMGWYRQAPGKERELVAAISFSGGRTYYADSVKGRFTISRDNAKNTVYLQMNSLKPEDSAVYYCTKVVYGYFTRAYTYNYWGQGTQVTVSS,high polyreactivity
16,QVQLVESGGGLVQAGGSLRLSCAASGSIFYSNTMGWYRQAPGKERELVAAISRGGSTYYADSVKGRFTISRENAKNTVYLQMNSLKPEDTAVYYCAARYRWAPAYDYWGQGTQVTVSS,high polyreactivity
17,QVQLVESGGGLVQAGGSLRLSCAASGSIFGINAMGWYRQAPGKERELVAAISGSTSRTYYADSVKGRFTISRDTAKNTVYLQMNSLKPEDTAVYYCARVKGVYHFSILDYWGQGTQVTVSS,high polyreactivity
18,QVQLVESGGGLVQAGGSLRLSCAASGRIFGWYAMGWYRQAPGKERELVATIRKSGGRTYYADSVKGRFTLSRDNAKNTVYFQMNSLKQEDTAVYYCAAENTAAGQGLWGEDYWGQGTQVTVSS,high polyreactivity
19,QVQLVESGGGLVQAGGSLRLSCAASGRTFASYAMGWYRQATGKERELVAAITGSGGSTYYADSVKGRFTISRDNAKNTVYLQMNSLKPEDTAVYYCNKGPHYPVYLEYIVGYDYWGQGTQVTVSS,low polyreactivity
20,QVQLVESGGGLVQAGGSLRLSCAASGITSQSYAMGWYRQAPGKERELVAGISASGGRTFYADSVKGRFTISRDNAKNTVYLQMNSLKPEDTAVYYCNKLSSDSYNYWGQGTQVTVSS,high polyreactivity
21,QVQLEESGGGLVQAGGSLRLSCAASGFTIIRYAMGWYRQAPGKERELVATISRRGASTYYADSVKGRFTISRANAKNTVYLQMNSLKPEDTAVYYCAKRTYSRKFRGAYNYWGQGTQVTVSS,high polyreactivity
